Patent US20230105324A1 (Hoffmann-La Roche, published 2023)
Residue numbers refer to the chain shown, from its start. Where two headings read alike, the source gives them in different places. Each block holds one binder with its values, some of them ahead of it.

Columns and labels:
minipig PDGF = target: T1, minipig PDGF (minipig); assay: SPR, Fab fragment; assay format for PDGF not described
T1 construct: Printed only as minipig PDGF; also called Minpig PDGF
T1 sequence (P20034 whole entry, looked up): SLGSPAVAEPAVIAE

human PDGF-BB [1] = target: T2, human PDGF-BB (human); assay: as above
T2 construct: The ELISA text names human PDGF-BB of Cell Signaling, Cat. No 8921BF
T2 chain: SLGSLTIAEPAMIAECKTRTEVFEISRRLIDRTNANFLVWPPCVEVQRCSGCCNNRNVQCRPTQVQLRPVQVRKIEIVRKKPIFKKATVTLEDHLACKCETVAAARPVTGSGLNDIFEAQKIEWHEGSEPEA

rabbit PDGF = target: T3, rabbit PDGF (rabbit); assay: as above
T3 construct: Printed only as rabbit PDGF

human PDGF-BB [2] = target: T2, human PDGF-BB; assay: as above
cynomolgus PDGF = target: T4, cynomolgus PDGF (cynomolgus); assay: as above
T4 construct: Printed only as cynomolgus PDGF

human VEGF121-His [3] = target: T5, human VEGF121-His (human, UniProt P15692 207-395); assay: SPR, VEGF121-His captured via anti-His antibody on C1 chip, Fab as analyte, single cycle kinetics
T5 construct: Captured by an anti-His antibody on the chip; not shown: His tag
T5 sequence: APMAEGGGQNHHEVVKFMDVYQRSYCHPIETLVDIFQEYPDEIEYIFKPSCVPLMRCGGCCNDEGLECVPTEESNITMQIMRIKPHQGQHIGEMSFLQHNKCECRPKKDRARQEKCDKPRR
Protocol: (§1) An anti-His capturing antibody (GE Healthcare 28995056) was immobilized to a Series S Sensor Chip C1 (GE Healthcare 29104990) using standard amine coupling chemistry resulting in a surface densitiy of approximately 500 resonance units (RU). As running and dilution buffer, HBS-P+ (10 mM HEPES, 150 mM NaCl pH 7.4, 0.05% Surfactant P20) was used. […] The surface was regenerated by injecting 10 mM Glycine pH 1.5 for 60s. […] Curve fitting was performed using the 1:1 Langmuir binding model within the Biacore evaluation software. To provide more robust fitting, the Multiple Rmax option was chosen for global fitting using both ligand densities.

human PDGF-BB [4] = target: T2, human PDGF-BB; assay: SPR, Fab fragment; assay format for PDGF not described
human VEGF121-His [5] = target: T5, human VEGF121-His; assay: SPR, VEGF121-His captured via anti-His antibody on C1 chip, Fab as analyte, single cycle kinetics; remark: listed apart in the source
Protocol: as §1

B1: bispecific anti-VEGF/anti-PDGF-B Fab fragment RO7113083 (Fab, V domains shown)
VH: DLQLVESGGGLVKPGGSLRLSCAADGWWFGYTDMSWVRQAPGKGLEWVGSISYKGGSTYYNTKFIGRFTISRDDDTNTLYLQMNSLRAEDTAVYYCARDDGYFDTWGQGTLVTVSS
VL: AIYMHQEPSSLSASVGDRVTITCHGSYWLSNYLAWYQQKPGKAPKLLIYDGKEREHGVPSRFSGSGSHEDYTLTISSLQPEDFATYYCQQYRYHPYTFGHGTKVEIKR
notes: also called R07113083
Kd (minipig PDGF): 0.3 nM
t½ (minipig PDGF): 59 min
Kd (human PDGF-BB [1]): 1.3 nM
t½ (human PDGF-BB [1]): 25 min
Kd (rabbit PDGF): 0.6 nM
t½ (rabbit PDGF): 59 min
Kd (human PDGF-BB [2]): 1 nM
t½ (human PDGF-BB [2]): 90 min
Kd (cynomolgus PDGF): 0.7 nM
t½ (cynomolgus PDGF): 53 min

B3: bispecific anti-VEGF/anti-PDGF-B Fab fragment P1AA9124 (Fab, V domains shown)
VH: B1 VH
VL: B1 VL with Y3Q, H5T, E7S, H100Q, V104L
Kd (minipig PDGF): 0.4 nM
t½ (minipig PDGF): 48 min
t½ (human PDGF-BB [1]): 24 min
Kd (rabbit PDGF): 0.7 nM
t½ (rabbit PDGF): 48 min
Kd (human PDGF-BB [2]): 1 nM
t½ (human PDGF-BB [2]): 44 min
Kd (cynomolgus PDGF): 0.6 nM
t½ (cynomolgus PDGF): 52 min

B6: bispecific anti-VEGF/anti-PDGF-B Fab fragment P1AE2845 (Fab, V domains shown)
VH: EEQLVESGGGLVQPGGSLRLSCAASGWWFEYTDMSWVRQAPGQGLEWVGSISPSGGSTYYNTNFIGRFTISRDDSKNTLYLQMNSLRDEDTAVYYCARDEGYFDEWGQGTLVTVSS
VL: AIQMTQSPSSLSASVGDRVTITCQASYWLHKYLAWYQQKPGQAPKLLIYDASELEYGVPDRFSGSGSGTDFTLTISSLEPEDFAVYYCQNYRYHPYTFGQGTKLEIKR
notes: DutaFab: one VH/VL pair carries both paratopes; Expressed in E. coli TG1
Kd (human PDGF-BB [4]): 95 nM
koff (human PDGF-BB [4]): 0.0779 s⁻¹
kon (human PDGF-BB [4]): 824000 M⁻¹ s⁻¹
t½ (human PDGF-BB [4]): 0.1 min
Kd (human PDGF-BB [2]): 95 nM
koff (human PDGF-BB [2]): 0.0779 s⁻¹
kon (human PDGF-BB [2]): 824000 M⁻¹ s⁻¹
t½ (human PDGF-BB [2]): 0.1 min
Kd (human VEGF121-His [3]): 0.13 nM
koff (human VEGF121-His [3]): 6.54e-05 s⁻¹
kon (human VEGF121-His [3]): 503000 M⁻¹ s⁻¹
t½ (human VEGF121-His [3]): 177 min
Kd (human VEGF121-His [5]): 0.13 nM
koff (human VEGF121-His [5]): 6.54e-05 s⁻¹
kon (human VEGF121-His [5]): 503000 M⁻¹ s⁻¹
t½ (human VEGF121-His [5]): 177 min

Further lines, results first:

Kd (minipig PDGF): 0.4 nM
koff (minipig PDGF): 0.000215 s⁻¹
kon (minipig PDGF): 605000 M⁻¹ s⁻¹
t½ (minipig PDGF): 54 min
Kd (human PDGF-BB [1]): 1.3 nM
koff (human PDGF-BB [1]): 0.000485 s⁻¹
kon (human PDGF-BB [1]): 368000 M⁻¹ s⁻¹
t½ (human PDGF-BB [1]): 24 min
Kd (rabbit PDGF): 0.7 nM
koff (rabbit PDGF): 0.000218 s⁻¹
kon (rabbit PDGF): 325000 M⁻¹ s⁻¹
t½ (rabbit PDGF): 53 min
Kd (human VEGF121-His [3]): 0.007 nM
koff (human VEGF121-His [3]): 1.15e-05 s⁻¹
kon (human VEGF121-His [3]): 1.56e+06 M⁻¹ s⁻¹
t½ (human VEGF121-His [3]): 1010 min
B2: bispecific anti-VEGF/anti-PDGF-B Fab fragment 28.02 (Fab, V domains shown)
VH: B1 VH with S57H, T58K, Y60L
VL: B1 VL with Y3H, H5Y

Kd (minipig PDGF): 0.3 nM
koff (minipig PDGF): 0.000225 s⁻¹
kon (minipig PDGF): 646000 M⁻¹ s⁻¹
t½ (minipig PDGF): 51 min
Kd (human PDGF-BB [1]): 1.4 nM
koff (human PDGF-BB [1]): 0.000483 s⁻¹
kon (human PDGF-BB [1]): 357000 M⁻¹ s⁻¹
t½ (human PDGF-BB [1]): 24 min
Kd (rabbit PDGF): 0.7 nM
koff (rabbit PDGF): 0.000223 s⁻¹
kon (rabbit PDGF): 337000 M⁻¹ s⁻¹
t½ (rabbit PDGF): 52 min
Kd (human VEGF121-His [3]): 0.012 nM
koff (human VEGF121-His [3]): 1.73e-05 s⁻¹
kon (human VEGF121-His [3]): 1.4e+06 M⁻¹ s⁻¹
t½ (human VEGF121-His [3]): 668 min
Kd (cynomolgus PDGF): 0.6 nM
koff (cynomolgus PDGF): 0.000215 s⁻¹
kon (cynomolgus PDGF): 336000 M⁻¹ s⁻¹
t½ (cynomolgus PDGF): 54 min
B4: bispecific anti-VEGF/anti-PDGF-B Fab fragment 28.07 (Fab, V domains shown)
VH: B1 VH with S57H, T58K, Y60L
VL: B1 VL

Kd (minipig PDGF): 0.3 nM
t½ (minipig PDGF): 69 min
Kd (human PDGF-BB [1]): 1.3 nM
t½ (human PDGF-BB [1]): 26 min
Kd (rabbit PDGF): 0.6 nM
t½ (rabbit PDGF): 67 min
Kd (cynomolgus PDGF): 0.6 nM
t½ (cynomolgus PDGF): 54 min
B5: bispecific anti-VEGF/anti-PDGF-B Fab fragment 28.01 (Fab, V domains shown)
VH: B1 VH
VL: B1 VL with Y3H, H5Y
